First the molecules themselves.
T1: AimR-V129C (Bacillus phage SPbeta, UniProt O64094 1-386, C71S;C107S;C213S;C275S;C304S;C347S;V129C)
T1 sequence: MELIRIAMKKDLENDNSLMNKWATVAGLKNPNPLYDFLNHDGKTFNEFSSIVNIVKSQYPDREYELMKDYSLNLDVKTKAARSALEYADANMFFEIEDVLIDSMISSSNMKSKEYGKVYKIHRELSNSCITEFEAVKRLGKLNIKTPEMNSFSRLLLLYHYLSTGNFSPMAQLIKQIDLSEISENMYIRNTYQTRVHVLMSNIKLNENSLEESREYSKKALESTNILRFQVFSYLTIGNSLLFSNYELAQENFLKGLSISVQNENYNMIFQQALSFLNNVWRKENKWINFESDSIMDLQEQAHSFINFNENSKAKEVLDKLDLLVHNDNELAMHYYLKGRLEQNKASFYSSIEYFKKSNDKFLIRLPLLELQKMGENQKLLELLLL

T2: AimR (Bacillus phage SPbeta, UniProt O64094 1-386)
T2 sequence: T1 sequence with S71C, S107C, C129V, S213C, S275C, S304C, S347C

B1: AimR protein from the SPbeta phage, full length, wild type (natural protein, UniProt O64094 1-386, looked up)
chain: T1 sequence with S71C, S107C, C129V, S213C, S275C, S304C, S347C
notes: AimR of Bacillus phage SPbeta, full length (DBD residues 1-48, CTD residues 49-386), codon-optimized cDNA in pET21b; also called SPbeta AimR; wild-type AimR; source: E. coli BL21 (DE3), purified (Ni-NTA, anion exchange Source 15Q, SEC Superdex-200)
B2: AimR-V129C (C71S/C107S/C213S/C275S/C304S/C347S/V129C), labelled with Alexa Fluor 488 and Cy5 (natural protein, SPbeta phage, UniProt O64094 1-386, looked up)
chain: T1 sequence
modifications: Alexa Fluor 488 C5 maleimide or Cy5 maleimide conjugated to Cys129 (double-labeled protein fraction collected)
notes: AimR of Bacillus phage SPbeta, full length with six Cys-to-Ser changes and V129C, in pET15b; His tag removed with drICE as for the other mutant proteins; also called dye-labeled protein; source: E. coli BL21 (DE3), purified as the mutant proteins; dye-conjugated and purified on a Source-Q column
B3: AimR-N166C (C71S/C107S/C213S/C275S/C304S/C347S/N166C) (natural protein, SPbeta phage, UniProt O64094 1-386, looked up)
chain: T1 sequence with C129V, N166C
notes: AimR of Bacillus phage SPbeta, full length with six Cys-to-Ser changes and N166C, in pET15b; His tag removed with drICE as for the other mutant proteins; source: E. coli BL21 (DE3), purified as the mutant proteins (gel filtration)
B4: arbitrium peptide GMPRGA (peptide)
peptide: GMPRGA
notes: mature arbitrium hexapeptide of the SPbeta phage, cut from the precursor encoded by the aimP gene; also called arbitrium hexapeptide; GMPRGA peptide; source: synthetic peptide, bought: GLS Biochem
B5: 37 bp DNA (dsDNA)
DNA 1: ATCACTTAAATATTAGGTTTTAATAACATCTAGTGAT
DNA 2: ATCACTAGATGTTATTAAAACCTAATATTTAAGTGAT
B6: C2A (dsDNA)
DNA 1: AATTAAATATTAGGTTTTAATAACATCTAGT
DNA 2: ACTAGATGTTATTAAAACCTAATATTTAATT
B7: C2T (dsDNA)
DNA 1: B6 DNA 1 with A2T
DNA 2: B6 DNA 2 with T30A
B8: A1T/T31'A (dsDNA)
DNA 1: B6 DNA 1 with A1T, A2C
DNA 2: B6 DNA 2 with T30G, T31A
B9: A1G/T31'C (dsDNA)
DNA 1: B6 DNA 1 with A1G, A2C
DNA 2: B6 DNA 2 with T30G, T31C
B10: C2G (dsDNA)
DNA 1: B6 DNA 1 with A2G
DNA 2: B6 DNA 2 with T30C

Series [1] deals with the molecule itself. Nature of the series: crystal structure; full-length AimR with the 31 bp DNA fragment and 5 mM MgCl2, 2.10 Å, PDB 6JG8.
Series [2] concerns the molecule itself. Kind of series: FRET or BRET; single-molecule FRET in solution between Alexa488 and Cy5 on Cys129 of the protomers, ~150 pM labelled AimR V129C, 25 °C, pH 7.4, 20 mM phosphate, 100 mM NaCl, 0.01% Tween 20; peptides titrated in.
Series [3] deals with the molecule itself. Kind of series: cross-linking; disulfide cross-linking of Cys166 by o-phenanthroline copper complex, AimR-N166C ~1 mg/ml, room temperature 30 min, nonreducing SDS-PAGE; alone or with DNA, unrelated peptide or arbitrium peptide.
Series [4] concerns the target B1. Nature of the series: crystal structure; AimR (~270 µM) incubated with arbitrium peptide GMPRGA (2.7 mM), PDB 6JG9. Particulars: both partners purified.
A further series deals with T1, AimR-V129C. Nature of the series: smFRET; 1 uM DNA; EMSA: 25 mM Tris-HCl pH 8.0, 150 mM NaCl, 5 mM MgCl2, 5 mM DTT, 0.1 mg/ml BSA, 10% glycerol, 50 ug/ml salmon sperm DNA, 4 C, 15 min; smFRET: 20 mM phosphate pH. Particulars: protein: recombinant; tags: 6xHis removed by drICE; Alexa Fluor 488 and Cy5 on C129; chain copies: 2.
A further series has as its target T2, AimR. Nature of the series: EMSA; 5 mM Mg2+; EMSA: 25 mM Tris-HCl pH 8.0, 150 mM NaCl, 5 mM MgCl2, 5 mM DTT, 0.1 mg/ml BSA, 10% glycerol, 50 ug/ml salmon sperm DNA, 4 C, 15 min; smFRET: 20 mM phosphate pH. The following applies: protein: recombinant; tags: C-terminal 8xHis; chain copies: 2; label: FAM.

Residue numbers refer to the chain shown, from its start. Names may count otherwise.

In the case of B1, in series [1], the “stoichiometry N” value is 2.

As for B2, the binding result in series [2] was “binds”.

Turning to B3, in series [3], the “stoichiometry N” value is 2.

Take B4: the binding result in series [4] is “binds”.

Consider B5, for which the binding result with AimR-V129C is “binds”.

Consider B6, for which the binding signal with AimR was ~8 fold lower binding than WT DNA.

On to B7, for which, in the series with AimR, the binding signal was ~42 fold lower binding than WT DNA.

On to B8, for which the binding signal with AimR is ~7 fold lower affinity than WT DNA.

B9: the binding signal in the series with AimR is ~19 fold lower affinity than WT DNA.

Regarding B10, the binding signal with AimR was ~9 fold lower binding than WT DNA.

Source of the values: paper PMC6536502, “Structural insights into DNA recognition by AimR of the arbitrium communication system in the SPbeta phage” (Cell Discovery, 2019).
